The text below walks through data of patent US20230078601A1 (CLEVELAND CLINIC FOUNDATION, published 2023).

Assay [1] concerns the target human Anti-Mullerian Hormone Receptor II (AMHR2), full length (human) (UniProt Q16671). The experiment in a line: flow cytometry on primary HGSOC-1 cells. Background: Flow cytometry measures light scatter and fluorescence of single cells or particles in a stream.
For assay [2] the target is unchanged. The experiment in a line: flow cytometry on AMHR2-OVCAR8 cells, mAb at 1 µg/ml.
Assay [3] shares this target. Put plainly: flow cytometry on primary HGSOC-2 cells.
The target is the same in assay [4]. The experiment in a line: flow cytometry competition on AMHR2-OVCAR8 cells: 4D12G1 mAb at 1 µg/ml with recombinant ovalbumin at 1 µg/ml; 91 % without competitor in FIG. 2E.
The target is the same in assay [5]. Put plainly: flow cytometry competition on AMHR2-OVCAR8 cells: 4D12G1 mAb at 1 µg/ml with recombinant ovalbumin at 100 µg/ml; 91 % without competitor in FIG. 2E.
Assay [6] shares this target. Put plainly: flow cytometry competition on AMHR2-OVCAR8 cells: 4D12G1 mAb at 1 µg/ml with recombinant ovalbumin at 10 µg/ml; 91 % without competitor in FIG. 2E.

human Anti-Mullerian Hormone Receptor II (AMHR2), full length (human), sequence (Q16671 18-573 limits assumed): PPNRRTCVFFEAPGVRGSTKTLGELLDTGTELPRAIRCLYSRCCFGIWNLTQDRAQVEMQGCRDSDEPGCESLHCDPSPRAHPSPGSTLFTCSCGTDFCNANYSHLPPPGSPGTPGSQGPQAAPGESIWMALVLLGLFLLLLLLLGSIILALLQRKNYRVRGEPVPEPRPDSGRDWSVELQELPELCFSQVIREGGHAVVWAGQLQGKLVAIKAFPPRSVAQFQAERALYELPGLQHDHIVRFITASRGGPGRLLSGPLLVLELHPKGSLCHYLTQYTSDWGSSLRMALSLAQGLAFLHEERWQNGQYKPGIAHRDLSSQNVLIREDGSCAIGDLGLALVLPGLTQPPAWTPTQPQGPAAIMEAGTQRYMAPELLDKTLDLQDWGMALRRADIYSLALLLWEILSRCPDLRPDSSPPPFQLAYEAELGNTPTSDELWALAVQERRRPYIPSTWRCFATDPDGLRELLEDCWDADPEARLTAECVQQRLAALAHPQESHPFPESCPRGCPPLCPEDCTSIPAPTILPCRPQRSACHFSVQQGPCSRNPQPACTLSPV

Take isotype control mAb (antibody): the percent of cells bound in assay [1] worked out at 1.5%; in assay [3] it was 1.1%. For the same substance, the % of cells in the positive gate in assay [2] was 1.1%.
Regarding “recombinant ovalbumin (from UniProt P01012 2-386)”, the % of cells in the 4D12G1-positive gate with ovalbumin at 1 µg/ml in assay [4] amounted to 88%. Also, the % of cells in the 4D12G1-positive gate with ovalbumin at 100 µg/ml in assay [5] amounted to 88%. In addition, the % of cells in the 4D12G1-positive gate with ovalbumin at 10 µg/ml in assay [6] is 86%.
